{"source": "patent US20090280138A1", "about": "(OXFORD BIOMEDICA UK, published 2009)", "binders": {"B1": {"name": "5T4 9-mer peptide 96 QNRSFEGMV (peptide)", "peptide": "QNRSFEGMV"}, "B2": {"name": "5T4 9-mer peptide 112 LYLPRDVLA (peptide)", "peptide": "LYLPRDVLA"}, "B3": {"name": "5T4 9-mer peptide 102 LLAGRALQG (peptide)", "peptide": "LLAGRALQG"}, "B4": {"name": "5T4 9-mer peptide 111 HFLYLPRDV (peptide)", "peptide": "HFLYLPRDV"}, "B5": {"name": "5T4 9-mer peptide 99 GMVVAALLA (peptide)", "peptide": "GMVVAALLA"}, "B6": {"name": "5T4 9-mer peptide 108 LELASNHFL (peptide)", "peptide": "LELASNHFL"}, "B7": {"name": "5T4 9-mer peptide 106 GLRRLELAS (peptide)", "peptide": "GLRRLELAS"}, "B8": {"name": "5T4 9-mer peptide 104 RALQGLRRL (peptide)", "peptide": "RALQGLRRL"}, "B9": {"name": "5T4 9-mer peptide 107 RRLELASNH (peptide)", "peptide": "RRLELASNH"}, "B10": {"name": "5T4 9-mer peptide 97 RSFEGMVVA (peptide)", "peptide": "RSFEGMVVA"}, "B11": {"name": "5T4 9-mer peptide 105 LQGLRRLEL (peptide)", "peptide": "LQGLRRLEL"}, "B12": {"name": "5T4 9-mer peptide 98 FEGMVVAAL (peptide)", "peptide": "FEGMVVAAL"}, "B13": {"name": "5T4 9-mer peptide 100 VVAALLAGR (peptide)", "peptide": "VVAALLAGR"}, "B14": {"name": "5T4 9-mer peptide 109 LASNHFLYL (peptide)", "peptide": "LASNHFLYL"}, "B15": {"name": "5T4 9-mer peptide 101 AALLAGRAL (peptide)", "peptide": "AALLAGRAL"}, "B16": {"name": "5T4 9-mer peptide 94 EDERQNRSF (peptide)", "peptide": "EDERQNRSF"}, "B17": {"name": "5T4 9-mer peptide 110 SNHFLYLPR (peptide)", "peptide": "SNHFLYLPR"}, "B18": {"name": "5T4 9-mer peptide 103 AGRALQGLR (peptide)", "peptide": "AGRALQGLR"}, "B19": {"name": "5T4 9-mer peptide 93 PPEDERQNR (peptide)", "peptide": "PPEDERQNR"}, "B20": {"name": "5T4 9-mer peptide 95 ERQNRSFEG (peptide)", "peptide": "ERQNRSFEG"}}, "data": [{"biological_target": "T1, MHC class I molecule B*0702 (biotin (bound to streptavidin-coated plate))", "T1 construct": "also called B7; HLA-B7", "test": "iTopia iScore", "experimental": "(§1) The 9 mers were tested for Peptide Binding, Off Rate and Affinity using iTopia Epitope Discovery System in accordance with the manufacturer's instructions. Briefly, 96 well microtitre plates coated with MHC molecules representing different MHC alleles are used to identify candidate peptides. […] Determinations are performed in duplicate using an ELISA plate reader and included allele specific positive controls.\n(§2) Finally, multiparametric analysis is performed on the results from these assays and an iScore is generated. The iScore represents a measure of the overall quality of peptide-MHC binding, enabling candidate peptides to be ranked in order of binding quality and allowing rational prioritisation of peptides for functional cellular follow-up studies.", "values": [{"binder": "B1", "iScore": 0}, {"binder": "B2", "iScore": 0}, {"binder": "B3", "iScore": 0}, {"binder": "B4", "iScore": 0}, {"binder": "B5", "iScore": 0}, {"binder": "B6", "iScore": 0}, {"binder": "B7", "iScore": 0}, {"binder": "B8", "iScore": 0.078}, {"binder": "B9", "iScore": 0}, {"binder": "B10", "iScore": 0}, {"binder": "B11", "iScore": 0.119}, {"binder": "B12", "iScore": 0}, {"binder": "B13", "iScore": 0}, {"binder": "B14", "iScore": 0}, {"binder": "B15", "iScore": 0.238}, {"binder": "B16", "iScore": 0}, {"binder": "B17", "iScore": 0}, {"binder": "B18", "iScore": 0}, {"binder": "B19", "iScore": 0}, {"binder": "B20", "iScore": 0}]}, {"biological_target": "T2, MHC class I molecule A*0201 (biotin (bound to streptavidin-coated plate))", "T2 construct": "also called A2; HLA-A2", "test": "iTopia iScore", "experimental": "as §1, §2", "values": [{"binder": "B1", "iScore": 0.052}, {"binder": "B2", "iScore": 0.218}, {"binder": "B3", "iScore": 0.176}, {"binder": "B4", "iScore": 0.227}, {"binder": "B5", "iScore": 0.384}, {"binder": "B6", "iScore": 0.151}, {"binder": "B7", "iScore": 0.045}, {"binder": "B8", "iScore": 0.168}, {"binder": "B9", "iScore": 0}, {"binder": "B10", "iScore": 0.189}, {"binder": "B11", "iScore": 0.114}, {"binder": "B12", "iScore": 0.051}, {"binder": "B13", "iScore": 0}, {"binder": "B14", "iScore": 0.337}, {"binder": "B15", "iScore": 0.156}, {"binder": "B16", "iScore": 0}, {"binder": "B17", "iScore": 0.051}, {"binder": "B18", "iScore": 0}, {"binder": "B19", "iScore": 0}, {"binder": "B20", "iScore": 0}]}, {"biological_target": "T3, MHC class I molecule A*0101 (biotin (bound to streptavidin-coated plate))", "T3 construct": "also called A1; HLA-A1", "test": "iTopia iScore", "experimental": "as §1, §2", "values": [{"binder": "B1", "iScore": 0}, {"binder": "B2", "iScore": 0}, {"binder": "B3", "iScore": 0}, {"binder": "B4", "iScore": 0}, {"binder": "B5", "iScore": 0}, {"binder": "B6", "iScore": 0}, {"binder": "B7", "iScore": 0}, {"binder": "B8", "iScore": 0}, {"binder": "B9", "iScore": 0}, {"binder": "B10", "iScore": 0}, {"binder": "B11", "iScore": 0}, {"binder": "B12", "iScore": 0}, {"binder": "B13", "iScore": 0}, {"binder": "B14", "iScore": 0.12}, {"binder": "B15", "iScore": 0}, {"binder": "B16", "iScore": 0}, {"binder": "B17", "iScore": 0}, {"binder": "B18", "iScore": 0}, {"binder": "B19", "iScore": 0}, {"binder": "B20", "iScore": 0}]}, {"biological_target": "T4, MHC class I molecule A*0301 (biotin (bound to streptavidin-coated plate))", "T4 construct": "also called A3; HLA-A3", "test": "iTopia iScore", "experimental": "as §1, §2", "values": [{"binder": "B1", "iScore": 0}, {"binder": "B2", "iScore": 0}, {"binder": "B3", "iScore": 0}, {"binder": "B4", "iScore": 0}, {"binder": "B5", "iScore": 0}, {"binder": "B6", "iScore": 0}, {"binder": "B7", "iScore": 0}, {"binder": "B8", "iScore": 0.027}, {"binder": "B9", "iScore": 0}, {"binder": "B10", "iScore": 0}, {"binder": "B11", "iScore": 0}, {"binder": "B12", "iScore": 0}, {"binder": "B13", "iScore": 0.125}, {"binder": "B14", "iScore": 0.224}, {"binder": "B15", "iScore": 0}, {"binder": "B16", "iScore": 0}, {"binder": "B17", "iScore": 0.084}, {"binder": "B18", "iScore": 0}, {"binder": "B19", "iScore": 0}, {"binder": "B20", "iScore": 0}]}]}
